Legend:
[1] = target: T1, Mouse IL-18Rα ectodomain (amino acids 19-329), biotinylated (mouse, UniProt Q61098 19-329, biotin on the AviTag (BirA ligase)); test: SPR
T1 construct: range 19-329; Secreted from Expi293 cells (H7 signal peptide removed); also called mIL-18Rα; mIL18Ra
T1 sequence: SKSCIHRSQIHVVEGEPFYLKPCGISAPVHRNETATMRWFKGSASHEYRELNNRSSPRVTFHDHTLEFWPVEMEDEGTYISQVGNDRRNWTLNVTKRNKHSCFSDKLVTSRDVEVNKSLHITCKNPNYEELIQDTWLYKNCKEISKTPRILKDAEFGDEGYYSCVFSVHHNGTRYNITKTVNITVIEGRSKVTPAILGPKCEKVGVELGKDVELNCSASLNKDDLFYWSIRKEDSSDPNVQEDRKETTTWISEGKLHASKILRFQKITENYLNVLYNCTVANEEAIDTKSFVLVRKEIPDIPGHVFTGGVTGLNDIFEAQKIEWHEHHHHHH

[2] = target: T1, Mouse IL-18Rα ectodomain (amino acids …); test: on-yeast binding isotherm (flow cytometry)
Method: (§1) Individual colonies of IL-18 yeast were grown overnight at 30° C. in SDCAA liquid media and induced in SGCAA liquid media for 1 day at 20° C. IL-18 display levels on yeast were verified by flow cytometry using an anti-cMyc tag antibody (anti-myc-PE; Cell Signaling Technologies). Receptor staining with biotinylated IL-18Rα (with or without IL-18R β) or biotinylated IL-18BP was performed in PBS supplemented with 0.5% BSA and 2 mM EDTA (PBE) on ice. All analysis was performed on a Sony SA3800 flow cytometer.

[3] = target: T2, Mouse IL-18BP (amino acids 31-194), biotinylated (mouse, UniProt Q9Z0M9 29-193, biotin on the AviTag (BirA ligase)); test: SPR; KD(IL-18BP)/KD(IL-18Rα) normalized to WT IL-18
T2 construct: also called mIL-18BP
T2 sequence: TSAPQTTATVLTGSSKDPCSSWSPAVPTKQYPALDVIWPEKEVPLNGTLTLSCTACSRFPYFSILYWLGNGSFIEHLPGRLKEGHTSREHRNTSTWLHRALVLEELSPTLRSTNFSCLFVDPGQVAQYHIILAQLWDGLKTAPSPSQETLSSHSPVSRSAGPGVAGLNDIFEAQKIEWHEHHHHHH

[4] = target: T2, Mouse IL-18BP (amino acids 31-194), …; test: yeast binding isotherms and SPR; members per FIG. 11A legend
Method: as §1
(§2) Experiments were conducted using a Biacore T100 and carried out at 25° C. Biotinylated IL-18Rα or IL-18BP were immobilized onto a Biacore biotin capture chip (Series S CAP sensor chip, GE Healthcare) to yield an Rmax of ˜50 RU (IL-18Rα) or ˜10 RU (IL-18BP). Measurements were made with serial dilutions of the IL-18 variants in HEPES buffered Saline-P+buffer (10 mM HEPES pH 7.4, 150 mM NaCl, 0.005% surfactant P20). The surface was regenerated by three 60-sec injections of regeneration buffer (3/4 (v/v) 8M guanidine hydrochloride with 1/4 (v/v) 1M sodium hydroxide). Experiments were performed in multiple channels simultaneously for increased observations. All data were analyzed with the Biacore T100 evaluation software version 2.0 with a 1:1 Langmuir binding model.

[5] = target: T2, Mouse IL-18BP (amino acids 31-194), …; test: SPR; KD ratio relative to WT IL-18; SPR; ratio normalized to WT
Method: as §2

[6] = target: T1, Mouse IL-18Rα ectodomain (amino acids …); test: SPR (Biacore T100), receptor captured via biotin, IL-18 as analyte
Method: as §2

[7] = target: T2, Mouse IL-18BP (amino acids 31-194), …; test: SPR; KD for IL-18BP over KD for IL-18Rα; SPR; ratio of two measured KD
Method: as §2

[8] = target: T2, Mouse IL-18BP (amino acids 31-194), …; test: SPR (Biacore T100), IL-18BP captured via biotin, IL-18 as analyte; SPR, soluble variant
Method: as §2

[9] = target: T2, Mouse IL-18BP (amino acids 31-194), …; test: on-yeast binding isotherms; 10 µM used for NBD; yeast-displayed variant; ratio computed with 10 µM put in for NBD
Method: as §1

[10] = target: T2, Mouse IL-18BP (amino acids 31-194), …; test: on-yeast binding isotherms; KD ratio relative to WT IL-18; yeast-displayed variant; ratio normalized to WT, from the 10 µM placeholder
Method: as §1

[11] = target: T2, Mouse IL-18BP (amino acids 31-194), …; test: SPR, immobilized biotinylated mIL-18BP, mCS2 as analyte; traces stay at or below about 2 RU during the injection (0 to about 180 s) on a 0-40 RU axis
Method: as §2

B1: SEQ ID NO: 61 (murine DR-IL-18 variant mCS2) (ligand)
chain: HFGRLHCTTAVIRNINDQVLFVDKRQPVFEDMTDIDQSASEPQTRLIIYAYGDSRARGKAVTLSVKDSKMSTLSCKNKIISFEEMDPPENIDDIQSDLIFFQKRVPGHNKMEFESSLYEGHFLACQKEDDAFKLILKKKDENGDKSVMFTLTNLHQS
notes: Engineered variant
With B1 as the binder, how does the Kd [1] read?
The Kd was 0.08 nM.

What about the Kd [2] of the same binder?
Its Kd is 11.3 nM.

What about the “IL-18 BP:Rα Dissociation Constant Ratio” value [3] of the same binder?
Its value is greater than 7.5e+07.

And the Kd [4]?
Its Kd is greater than 1000 nM.

And the “Dissociation Constant Ratio normalized to WT IL-18” value [5]?
The value was 7.25e+07.

What about the Kd [6] of the same binder?
The Kd was 0.079 nM.

What about the “KD ratio IL-18BP/IL-18Rα” value [7] of the same binder?
Its value is 133000.

What about the Kd [8] of the same binder?
Its Kd is 10500 nM.

And the “KD ratio IL-18BP/IL-18Rα” value [9]?
Its value is greater than 885.

And the “Dissociation Constant Ratio normalized to WT IL-18” value [10]?
The value was greater than 4690.

What about the Kd [11] of the same binder?
The Kd was greater than 10000 nM.
